# From patent publication US20110263014
# Numbering of substitutions follows the chain as printed.
# Key:
# [1] = molecular target: T1, mNanog (D67G) (UniProt Q80Z64)
# T1 sequence: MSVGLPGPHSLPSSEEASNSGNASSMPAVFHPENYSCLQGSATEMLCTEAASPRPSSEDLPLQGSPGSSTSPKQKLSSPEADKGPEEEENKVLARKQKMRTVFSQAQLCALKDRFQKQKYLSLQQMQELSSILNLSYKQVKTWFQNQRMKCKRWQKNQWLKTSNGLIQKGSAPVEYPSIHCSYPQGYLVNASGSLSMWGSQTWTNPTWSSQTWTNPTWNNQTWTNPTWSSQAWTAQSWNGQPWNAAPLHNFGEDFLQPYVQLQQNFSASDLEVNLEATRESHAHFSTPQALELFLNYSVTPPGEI
# [2] = molecular target: T2, mouse Nanog (mNanog) (UniProt Q80Z64)
# T2 sequence: T1 sequence with G67D
substance,measurement,setting,value
recombinant caspase-9,cleavage of immunoprecipitated mNanog (D67G) by recombinant caspase,[1],Mutation D67G in mNanog greatly diminished cleavage of mNanog by caspase-9
same,cleavage of immunoprecipitated mNanog by recombinant caspase,[2],Only caspase-9 effectively cleaved mNanog into a 27 kDa fragment
same,in vitro caspase cleavage assay,[2],caspase-9 can effectively cleave in vitro-translated mNanog
